Measurements: patent US10555972 (INNOPEUTICS, dated 2020)

Target: T1, Nuclear receptor-related factor 1 (Nurr1) (mouse, UniProt Q06219 1-598)
T1 construct: Endogenous transcription factor in mouse ventral midbrain lysates (IP) or frozen tissue sections (PLA); not a recombinant construct; also called NR4A2
Experiment: reciprocal co-immunoprecipitation and Western blot, midbrain lysates of 10-week-old mice
Description: Interaction between Nurr1 and Foxa2 (in mouse VM tissues at 10 weeks of age) was assessed by an IP. Tissues were lysed in IP lysis buffer (Thermo Scientific, Waltham, Mass.) supplemented with protease inhibitors. Lysates were incubated with an anti-Nurr1 antibody (1:1,000, mouse, R&D Systems) or an anti-Foxa2 antibody (1:1,000, goat, Santa Cruz Biotechnology) at 4° C. for 18-24 hours. The mixtures were shaken with magnetic beads (Life Technologies) at room temperature for 1-2 hours. After washing, immunoprecipitated proteins were eluted in a sample buffer and subjected to a Western blot analysis using an anti-Foxa2 antibody (1:1,000, goat, Cell Signaling Technology) or an anti-Nurr1 antibody (1:500, mouse, R&D Systems).
Close physical interaction of these two proteins was confirmed by an in situ proximity ligation assay (PLA), which allows visualization of protein-protein binding by red fluorescence (554 nm) emanating from two proteins in close proximity (FIG. 2E).

T1 sequence (Q06219 whole entry): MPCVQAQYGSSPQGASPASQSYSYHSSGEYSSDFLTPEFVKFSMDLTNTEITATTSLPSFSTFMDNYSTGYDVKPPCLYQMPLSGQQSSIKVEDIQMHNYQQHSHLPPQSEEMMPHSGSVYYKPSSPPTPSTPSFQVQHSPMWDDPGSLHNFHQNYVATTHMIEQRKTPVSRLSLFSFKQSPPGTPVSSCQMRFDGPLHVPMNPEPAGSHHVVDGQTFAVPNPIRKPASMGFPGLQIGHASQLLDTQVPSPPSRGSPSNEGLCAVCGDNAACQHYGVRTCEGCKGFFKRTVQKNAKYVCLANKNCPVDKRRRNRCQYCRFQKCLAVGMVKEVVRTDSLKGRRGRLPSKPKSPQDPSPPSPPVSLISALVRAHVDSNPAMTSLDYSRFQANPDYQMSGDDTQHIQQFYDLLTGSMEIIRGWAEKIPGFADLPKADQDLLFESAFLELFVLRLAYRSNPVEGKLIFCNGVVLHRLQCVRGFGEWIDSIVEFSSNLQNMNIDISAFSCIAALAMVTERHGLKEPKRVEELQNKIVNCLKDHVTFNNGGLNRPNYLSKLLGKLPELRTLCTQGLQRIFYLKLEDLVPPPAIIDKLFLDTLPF

B1: forkhead box protein A2 (Foxa2) (other, mouse, UniProt P35583 1-459, looked up)
chain: MLGAVKMEGHEPSDWSSYYAEPEGYSSVSNMNAGLGMNGMNTYMSMSAAAMGGGSGNMSAGSMNMSSYVGAGMSPSLAGMSPGAGAMAGMSGSAGAAGVAGMGPHLSPSLSPLGGQAAGAMGGLAPYANMNSMSPMYGQAGLSRARDPKTYRRSYTHAKPPYSYISLITMAIQQSPNKMLTLSEIYQWIMDLFPFYRQNQQRWQNSIRHSLSFNDCFLKVPRSPDKPGKGSFWTLHPDSGNMFENGCYLRRQKRFKCEKQLALKEAAGAASSGGKKTAPGSQASQAQLGEAAGSASETPAGTESPHSSASPCQEHKRGGLSELKGAPASALSPPEPAPSPGQQQQAAAHLLGPPHHPGLPPEAHLKPEHHYAFNHPFSINNLMSSEQQHHHSHHHHQPHKMDLKAYEQVMHYPGGYGSPMPGSLAMGPVTNKAGLDASPLAADTSYYQGVYSRPIMNSS
notes: Endogenous transcription factor in mouse ventral midbrain lysates (IP) or frozen tissue sections (PLA); not a recombinant construct
**Q.** Does B1 bind?
**A.** Result: binds
